The values below come from article PMC4212957, “The serodominant secreted effector protein of Salmonella, SseB, is a strong CD4 antigen containing an immunodominant epitope presented by diverse HLA class II alleles” (Immunology, 2014).

The target of one assay is HLA-DRB1*07:01 (Homo sapiens, UniProt P01903+P01911, A100R/A102G/A103Q/D57E/D86V/E43K/F76Y/K127E/L162R/M171V/P40G/Q125H/Q99D/R33Q/R42Y/R54Q/S133A/S66F/T210M/V115G/Y107V/Y59L/Y89S). The conditions noted are these: competitive ELISA; ratio IC50 of peptide / IC50 of reference peptide HA 306–318; lower = higher affinity; ratio 20 or less high, 20–100 moderate; three independent experiments.

For a further assay, the target named is HLA-DRB1*01:01 (Homo sapiens, UniProt P01903+P01911, A100R/D57E/F55L/F60I/F76Y/I96L/L162R/M171V/P40L/Q125E/R42F/V115G/Y59C). As to conditions: competitive ELISA; ratio IC50 of peptide / IC50 of reference peptide HA 306–318; lower = higher affinity; ratio 20 or less high, 20–100 moderate; three independent experiments. In general terms: ELISA stands for enzyme-linked immunosorbent assay.

Another assay concerns the target T1, HLA-DRB1*15:01 (Homo sapiens, UniProt P01903+P01911).
T1 construct: HLA-DR heterodimers were purified from homozygous Epstein–Barr virus B-lymphoblastoid cell lines; host or cells: homozygous EBV B-lymphoblastoid cell line
The experiment in a line: Peptide/HLA-DR binding, competitive ELISA. The conditions noted are these: ratio IC50 of peptide / IC50 of reference peptide A3 152–166, lower = higher affinity, ratio 20 or less high, 20–100 moderate, three independent experiments. How it is done: (§1) HLA-DR heterodimers were purified from homozygous Epstein–Barr virus B-lymphoblastoid cell lines (HPA Culture Collections, Salisbury, UK) by affinity chromatography with the monomorphic HLA-DRα monoclonal antibody, L243.[29],[30] Binding of the SseB peptide panel to the HLA-DR molecules HLA-DRB1*01:01, 03:01, 04:01, 07:01, 09:01, 11:01, 12:02, 15:01, 15:02 was assessed by competitive ELISA, as previously described, using an automated workstation.[29],[30] We evaluated the peptide concentration able to prevent binding of 50% of the labelled peptide (IC50). Data were expressed as relative affinity: ratio of the IC50 of the peptide to the IC50 of the reference peptide, which is a high binder to the HLA class II molecule. Unlabelled forms of the biotinylated peptides were used as reference peptides.

In a further assay the target is T2, HLA-DRB1*09:01 (Homo sapiens, UniProt P01903+P01911, A100R/A103E/D57H/D86V/F55Y/F60I/F76Y/I96F/K127E/L162R/M171V/P40D/Q125H/Q99R/R33Q/R42F/S133A/S66N/T210M/V115G/W38K/Y107V/Y59G/Y89S).
T2 construct: HLA-DR heterodimers were purified from homozygous Epstein–Barr virus B-lymphoblastoid cell lines; host or cells: homozygous EBV B-lymphoblastoid cell line
The experiment in a line: Peptide/HLA-DR binding, competitive ELISA. As to conditions: ratio IC50 of peptide / IC50 of reference peptide CTP 427–441, lower = higher affinity, ratio 20 or less high, 20–100 moderate, three independent experiments. How it is done: as §1

The target of the next assay is HLA-DRB1*12:02 (Homo sapiens, UniProt P01903+P01911, A100R/A169T/D57E/D86V/F55L/H45Y/I96F/K41T/L162R/M171V/P40S/Q125H/Q178H/Q39Y/Q99D/R42G/S66L/T262R/V114A/V67L/W38E/Y59H/Y61H/Y89S). In words: Peptide/HLA-DR binding, competitive ELISA. The conditions noted are these: ratio IC50 of peptide / IC50 of reference peptide TFR 141–155, lower = higher affinity, ratio 20 or less high, 20–100 moderate, three independent experiments. On the procedure: as §1

Another assay addresses T3, HLA-DRB1*15:02 (Homo sapiens, UniProt P01903+P01911, V115G).
T3 construct: HLA-DR heterodimers were purified from homozygous Epstein–Barr virus B-lymphoblastoid cell lines; host or cells: homozygous EBV B-lymphoblastoid cell line
In words: Peptide/HLA-DR binding, competitive ELISA. As to conditions: ratio IC50 of peptide / IC50 of reference peptide TFR 607–620, lower = higher affinity, ratio 20 or less high, 20–100 moderate, three independent experiments. How it is done:
as §1

The next assay deals with T4, HLA-DRB1*03:01 (Homo sapiens, UniProt P01903+P01911, A100K/A102G/A103R/A169T/F55Y/I96L/K41T/L162R/M171V/P40S/Q125H/Q178H/Q39Y/R42S/S66N/T106N/T262R/W38E/Y61H).
T4 construct: HLA-DR heterodimers were purified from homozygous Epstein–Barr virus B-lymphoblastoid cell lines; host or cells: homozygous EBV B-lymphoblastoid cell line
The experiment in a line: Peptide/HLA-DR binding, competitive ELISA. As to conditions: ratio IC50 of peptide / IC50 of reference peptide MT2-16, lower = higher affinity, ratio 20 or less high, 20–100 moderate, three independent experiments. On the procedure:
as §1

The target in another assay is HLA-DRB1*04:01 (Homo sapiens, UniProt P01903+P01911, A100K/A169T/F76Y/I96L/K127E/L162R/M171V/N62H/P40V/Q125Y/R42H/S133A/S149N/S66Y/V115G/V209L/W38E). The conditions noted are these: competitive ELISA; ratio IC50 of peptide / IC50 of reference peptide HA 306–318; lower = higher affinity; ratio 20 or less high, 20–100 moderate; three independent experiments.
The next assay deals with HLA-DRB1*11:01 (Homo sapiens, UniProt P01903+P01911, A100R/A169T/A87E/I96F/K41T/L162R/M171V/P40S/Q125H/Q178H/Q39Y/Q99D/R42S/S66Y/T262R/V115G/W38E). As to conditions: competitive ELISA; ratio IC50 of peptide / IC50 of reference peptide HA 306–318; lower = higher affinity; ratio 20 or less high, 20–100 moderate; three independent experiments.
The test system of assay [1] is draining lymph node cells of HLA-DR4 transgenic mice. In words: Murine IFN-γ ELISpot, HLA-DR4 transgenic mice primed with SseB. As to conditions: mouse, in vivo. The source says: (§2) Mice transgenic for HLA-DR1 (that is, HLA-DRA1*0101/HLA-DRB1*0101) and HLA-DR4 (that is, HLA-DRA1*0101/HLA-DRB1*0401)[24]–[26] were bred and housed in the Centre for Biological Services at the Hammersmith campus, Imperial College London, UK, in accordance with Home Office regulations and College ethics review. Both transgenic lines are maintained on a C57BL/6 background as homozygotes for knockout of murine MHC Class II H2-Aβ.[27]
(§3) HLA-DR1 or HLA-DR4 transgenic mice were primed, by subcutaneous injection into the footpad, with 25 μg of recombinant SseB protein administered as a 1 : 1 emulsion with TiterMax® Gold (CytRx Corporation, Los Angeles, CA). Ten days after priming, popliteal draining lymph nodes were harvested and stimulated, in triplicate, at 2 × 10^5 cells per well with 25 μg of SseB peptide or recombinant protein in pre-coated murine IFN-γ ELISpot plates (2BScientific, Upper Heyford, Oxfordshire, UK). Culture medium was RPMI-1640 containing 2 mM L-glutamine, 50 U/ml penicillin G, 50 μg/ml streptomycin sulphate, 50 μM β-mercaptoethanol and 10% fetal calf serum. Cells were cultured at 37° and in 5% CO2 for 72 hr before assay development using a biotinylated anti-IFN-γ antibody, a horseradish peroxidase detection antibody and TMB substrate (2BScientific). Developed plates were left to dry before spot counting using an AID ELISpot reader (Autoimmun Diagnostika GMBH). Positive epitopes for a given transgenic line were defined as those where more than half of assayed animals gave a greater number of spot-forming cells than 2 SD over the mean of the no protein/peptide control.
(§4) Fig 1 Definition of HLA-DR specific T-cell epitopes in DR1 and DR4 transgenic mice. (a) HLA-DR1 (n = 5) and (b) HLA-DR4 (n = 6) mice were footpad primed with ssEB protein in combination with TiterMax® Gold adjuvant. Draining lymph node (DLN) cells were assayed by ELISpot at day 10 for interferon-γ (IFN-γ) T-cell responses to ssEB peptides and protein. A peptide was defined as containing a T-cell epitope for DR1 or DR4 HLA molecules if more than half of the mice assayed gave a greater number of spot-forming cells than 2 SD over the mean of the no peptide/protein control. The 2 SD value for each transgenic line is shown by a dotted line.

The next assay deals with Salmonella SL1344. The conditions noted are these: C57BL/6 mice, immunization with two doses; cited from earlier work. The text has this: There have been a limited number of studies aimed at exploring candidates from the S. Typhi immunome for serodiagnostic, serodominant or protective credentials with respect to B-cell or T-cell immunity.[16]–[19] Some candidate antigens have been successfully deployed to induce protective immunity against challenge in mice; these antigens include OmpL, SseB, SseD and CirA.[16],[18],[19] Antigen arrays have been informative: an array of 2724 Salmonella enterica serovar Typhi antigens, selected on the basis of key terms such as ‘outer membrane’ or ‘chaperone’, representing over 63% of the proteom ...

The test system of assay [2] is draining lymph node cells of HLA-DR1 transgenic mice. The experiment in a line: Murine IFN-γ ELISpot, HLA-DR1 transgenic mice primed with SseB. The conditions noted are these: mouse, in vivo.
Excerpt: as §2, §3, §4

On to “14: SseB overlapping library peptide, residues 131–150 (KLDKGGLQAIKAALDNDANR) [Peptide 14]”, for which the “Relative binding affinity of peptide to HLA-DR molecules DRB1*0701” value with HLA-DRB1*07:01 was found to be 17. The “Relative binding affinity of peptide to HLA-DR molecules DRB1*0101” value with HLA-DRB1*01:01 is 335. Besides, the “Relative binding affinity of peptide to HLA-DR molecules DRB1*1501” value with HLA-DRB1*15:01 came out at 10. In the assay with HLA-DRB1*09:01, the “Relative binding affinity of peptide to HLA-DR molecules DRB1*0901” value worked out at 50. For the same molecule, in the assay with HLA-DRB1*12:02, the “Relative binding affinity of peptide to HLA-DR molecules DRB1*1202” value was determined as 71. Also, in the assay with HLA-DRB1*15:02, the “Relative binding affinity of peptide to HLA-DR molecules DRB1*1502” value is on record as > 3 333. Besides, the “Relative binding affinity of peptide to HLA-DR molecules DRB1*0301” value with HLA-DRB1*03:01 is on record as > 119. In the assay with HLA-DRB1*04:01, the “Relative binding affinity of peptide to HLA-DR molecules DRB1*0401” value was determined as 13. In addition, the “Relative binding affinity of peptide to HLA-DR molecules DRB1*1101” value with HLA-DRB1*11:01 was > 278. For the same molecule, the “IFN-γ ELISpot recall response / CD4 epitope in HLA-DR4 transgenic mice” value in assay [1] was “CD4 epitopes detected”.

B1: SseB: Recombinant SseB protein of Salmonella, codon optimized, expressed in E. coli (protein, UniProt Q7BVH7 1-196, looked up)
Secreted effector protein SseB: MSSGNILWGSQNPIVFKNSFGVSNADTGSQDDLSQQNPFAEGYGVLLILLMVIQAIANNKFIEVQKNAERARNTQEKSNEMDEVIAKAAKGDAKTKEEVPEDVIKYMRDNGILIDGMTIDDYMAKYGDHGKLDKGGLQAIKAALDNDANRNTDLMSQGQITIQKMSQELNAVLTQLTGLISKWGEISSMIAQKTYS
modifications: recombinant, codon optimized, E. coli expressed
On to B1, for which the “protection from oral challenge (mean survival time and tissue bacterial burden)” value with Salmonella SL1344 is recorded as “substantial protection”. In addition, in assay [2], the “IFN-γ ELISpot recall response / CD4 epitope in HLA-DR1 transgenic mice” value is recorded as “highly immunogenic”. Moreover, the “IFN-γ ELISpot recall response / CD4 epitope in HLA-DR4 transgenic mice” value in assay [1] is “relatively large response”.
